{"source": "patent US20040116653A1", "molecular_target": "human CD4 on cells (MT-2, MT-4 cells; mouse SR.hCD4 cells transfected with human CD4) (human) (UniProt P01730)", "test": "cell-based or functional assay"}
{"substance": "synthetic soluble multiple-branched peptide (MBP) corresponding to amino acids 51-74 of CD38 (CD3851-74 MBP)", "values": [{"measurement": "EC50, inhibition of HIV-1IIIB infection of MT-4 cells (p24 ELISA, day 3)", "value": 12, "unit": "nM"}, {"measurement": "EC90, inhibition of HIV-1IIIB infection of MT-4 cells (p24 ELISA, day 3)", "value": 75, "unit": "nM"}]}
